US20220064286A1 (Genentech, published 2022)
Residue numbers refer to the chain shown, from its start. In names and notes the source's numbering stands. Blank lines part the entries; values can stand above or below the binder they belong to.

Key:
[1] = molecular target: cynomolgus monkey (cyno) TIGIT protein (cynomolgus monkey, UniProt A0A7N9I9V4 89-209); assay: SPR, captured mAb
human TIGIT protein [2] = molecular target: T1, human TIGIT protein (human, UniProt Q495A1 22-141, limits assumed); assay: SPR, captured mAb
T1 construct: Recombinant protein (Genentech) used in ELISA screening and as SPR analyte; also called TIGIT antigen
T1 sequence: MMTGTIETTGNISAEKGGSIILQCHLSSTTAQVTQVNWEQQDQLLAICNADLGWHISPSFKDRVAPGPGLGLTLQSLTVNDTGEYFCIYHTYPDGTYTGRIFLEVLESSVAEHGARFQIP

hTIGIT mutant Q53A [3] = molecular target: T2, hTIGIT mutant Q53A (human, UniProt Q495A1); assay: SPR (BIACORE), N=2
T2 sequence (TIGIT, looked up): T1 sequence with Q32A

hTIGIT mutant L73A [4] = molecular target: T3, hTIGIT mutant L73A (human, UniProt Q495A1); assay: SPR (BIACORE), N=2
T3 sequence (TIGIT, looked up): T1 sequence with L52A

human TIGIT protein [5] = molecular target: T1, human TIGIT protein; assay: SPR (BIACORE), N=2
hTIGIT mutant Q53A [6] = molecular target: T2, hTIGIT mutant Q53A; assay: SPR (BIACORE) KD normalized to WT, N=2
hTIGIT mutant L73A [7] = molecular target: T3, hTIGIT mutant L73A; assay: SPR (BIACORE) KD normalized to WT, N=2
hTIGIT mutant Y113A = molecular target: T4, hTIGIT mutant Y113A (human, UniProt Q495A1); assay: SPR (BIACORE) KD normalized to WT, N=2
T4 sequence (TIGIT, looked up): T1 sequence with Y92A

human TIGIT protein [8] = molecular target: T1, human TIGIT protein; assay: SPR (BIACORE) KD normalized to WT, N=2
[9] = molecular target: T5, full-length human TIGIT on CHO cells (human, UniProt Q495A1 22-244); assay: FACS, PVR-Fc on CHO-TIGIT cells; competitor PVR-Fc
T5 construct: also called CHO-hTIGIT; hu TIGIT
T5 sequence: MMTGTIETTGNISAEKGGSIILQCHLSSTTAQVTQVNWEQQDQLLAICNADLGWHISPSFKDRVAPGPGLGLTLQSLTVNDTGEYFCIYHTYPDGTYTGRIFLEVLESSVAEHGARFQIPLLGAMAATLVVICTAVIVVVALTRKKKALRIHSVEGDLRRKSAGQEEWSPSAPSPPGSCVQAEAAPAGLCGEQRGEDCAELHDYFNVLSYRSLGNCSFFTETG
Protocol: These studies were further validated in CHO-TIGIT PVR blocking experiments in which TIGIT-expressing CHO cells were incubated with labeled PVR-Fc fusion protein in the presence of anti-TIGIT antibody or an human IgG1 control (FIG. 4A).

[10] = molecular target: T5, full-length human TIGIT on CHO cells; assay: FACS, CHO cells expressing TIGIT
[11] = molecular target: T6, human TIGIT on activated human primary T cells (human, UniProt Q495A1 22-244); assay: FACS, activated human T cells
T6 construct: also called Human T cell
T6 sequence: T5 sequence
Protocol: The OMT- and SD-derived anti-TIGIT clones were also tested for binding to human primary T cells by FACS analysis. Human PBMC were activated for with plate-bound anti-CD3 (5 μg/ml) and soluble anti-CD28 (2 μg/ml) for 2 days as described in Yu et al. Nature Immunology. 10: 48-57, 2009, which is incorporated herein by reference in its entirety. Cells were then washed and incubated with incubated with each anti-TIGIT antibody at the indicated concentrations and then detected via a FITC-labeled anti-hIgG antibody. Cells were also stained with anti-CD4, anti-CD8, and anti-CD25 (BD bioscience). Human CD4+(CD25+CD4+) and human CD8+(CD25+CD8+) T cells were assessed for binding by the anti-TIGIT clones by FACS. All samples were acquired on LSR-II or LSR-Fortessa instruments (BD Biosciences) and analyzed using FlowJo software (Treestar).

cynomolgus monkey (cyno) TIGIT protein, sequence (A0A7N9I9V4 entry or part of it): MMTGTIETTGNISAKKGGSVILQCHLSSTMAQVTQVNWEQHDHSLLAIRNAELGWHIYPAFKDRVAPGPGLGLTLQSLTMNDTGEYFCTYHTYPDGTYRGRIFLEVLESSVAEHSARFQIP

Kd [1]: 3.33 nM
koff [1]: 0.00207 s⁻¹
kon [1]: 621000 M⁻¹ s⁻¹
Kd (human TIGIT protein [2]): 0.43 nM
koff (human TIGIT protein [2]): 0.00164 s⁻¹
kon (human TIGIT protein [2]): 3.84e+06 M⁻¹ s⁻¹
Kd (hTIGIT mutant Q53A [3]): 0.8 nM
Kd (hTIGIT mutant L73A [4]): 1.3 nM
Kd (human TIGIT protein [5]): 0.5 nM
Binding affinity drop vs. WT (hTIGIT mutant Q53A [6]): 1.6 fold
Binding affinity drop vs. WT (hTIGIT mutant L73A [7]): 2.6 fold
Binding affinity drop vs. WT (hTIGIT mutant Y113A): 5.6 fold
Binding affinity drop vs. WT (human TIGIT protein [8]): 1 fold
B1: 4.1D3 (antibody, V domains shown)
VH: QVQLQQSGPGLVKPSQTLSLTCAISGDSVSSNSAAWNWIRQSPSRGLEWLGKTYYRFKWYSDYAVSVKGRITINPDTSKNQFSLQLNSVTPEDTAVFYCTRESTTYDLLAGPFDYWGQGTLVTVSS
VL: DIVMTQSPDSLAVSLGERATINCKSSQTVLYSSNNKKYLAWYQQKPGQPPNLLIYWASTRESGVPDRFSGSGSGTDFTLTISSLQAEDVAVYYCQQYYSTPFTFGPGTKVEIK
notes: OMT rat-derived human antibody; also called 4.1D3.Q1

IC50 [9]: 0.29 nM
Kd [1]: 3.22 nM
koff [1]: 0.00154 s⁻¹
kon [1]: 478000 M⁻¹ s⁻¹
Kd (human TIGIT protein [2]): 0.56 nM
koff (human TIGIT protein [2]): 0.00097 s⁻¹
kon (human TIGIT protein [2]): 1.72e+06 M⁻¹ s⁻¹
EC50 [10]: 1.04 nM
EC50 [11]: 1.36 nM
B2: 4.1D3.Q1E (antibody, V domains shown)
VH: B1 VH with Q1E
VL: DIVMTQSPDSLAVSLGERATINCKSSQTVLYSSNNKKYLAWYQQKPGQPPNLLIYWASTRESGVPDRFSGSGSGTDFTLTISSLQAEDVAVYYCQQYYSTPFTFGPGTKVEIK

Kd (hTIGIT mutant Q53A [3]): 32 nM
Kd (hTIGIT mutant L73A [4]): > 500 nM
Binding affinity drop vs. WT (hTIGIT mutant Q53A [6]): 0.7 fold
Binding affinity drop vs. WT (hTIGIT mutant L73A [7]): > 11 fold
Binding affinity drop vs. WT (hTIGIT mutant Y113A): 1.2 fold
B3: 10A7 (antibody, V domains shown)
VH: EVQLVESGGGLTQPGKSLKLSCEASGFTFSSFTMHWVRQSPGKGLEWVAFIRSGSGIVFYADAVRGRFTISRDNAKNLLFLQMNDLKSEDTAMYYCARRPLGHNTFDSWGQGTLVTVSS
VL: DIVMTQSPSSLAVSPGEKVTMTCKSSQSLYYSGVKENLLAWYQQKPGQSPKLLIYYASIRFTGVPDRFTGSGSGTDYTLTITSVQAEDMGQYFCQQGINNPLTFGDGTKLEIKR

IC50 [9]: 0.38 nM
Kd [1]: 2.01 nM
koff [1]: 0.000556 s⁻¹
kon [1]: 276000 M⁻¹ s⁻¹
Kd (human TIGIT protein [2]): 2.97 nM
koff (human TIGIT protein [2]): 0.000856 s⁻¹
kon (human TIGIT protein [2]): 288000 M⁻¹ s⁻¹
EC50 [10]: 3.04 nM
EC50 [11]: 2.63 nM
Kd (human TIGIT protein [5]): 1.8 nM
Binding affinity drop vs. WT (human TIGIT protein [8]): 1 fold
B4: 7.4A3.C96S.Q1E (antibody, V domains shown)
VH: EVQLVQSGSDLKKPGASVRVSCKASGYTFTSYPMNWVRQAPGHGLEWMGWINTNTGNPTYVQGFTGRFVFSLDTSVNTAYLQISSLKAEDTAVYFCARTGGHTYDSYAFDVWGQGTMVTVSS
VL: DIQLTQSPTFLSASVGDRVTITCRASQVISSSLAWYQQNPGKAPKLLIYAASTLQSGVPSRFSGSGSGTEFTLTISSLQPEDFVTYYCQHLHGYPSNFGQGTKVEIK
notes: also called 7.4A3.Q1E.C96S
